Tests used:
Test in all cases: peptide microarray (RepliTope)
SEQ ID NO 82 = target: T1, SEQ ID NO 82 (human)
T1 construct: 15-mer of the human mortalin 348-450 array
T1 peptide: RMPKVQQTVQDLFGR
Method: (§1) Eighty nine (89) peptides (15 amino acids each) which were designed to each be shifted by one amino acid on the amino acid sequence ranging from position 348 to position 450 of human mortalin containing the amino acid sequence (SEQ ID NO: 56) ranging from the above position 381 to position 410, were chemically synthesized. Epitope mapping (RepliTope mapping) analysis was then carried out on them using a Tecon HS400 microarray analysis station (FIG. 14).
(§2) Background measurement was carried out for each microarray using an Axon Genepix scanner, so that it was confirmed that no signals were detected. All microarrays were treated using a blocking buffer (Pierce, Puperblock TBS #37536).
(§3) As anti-mortalin monoclonal antibodies having the cellular internalizing function, two antibodies 37-6 and 38-4 were prepared. Antibody 53-3 that is an anti-mortalin antibody not having the cellular internalizing function was prepared for comparison. Each antibody (30 μg/mL, 200 μL) diluted with a blocking buffer was applied to microarrays and then incubated. After the microarrays were washed 3 instances with a TBS buffer containing 0.1% T20, a fluorescence-labeled secondary antibody (1 μg/mL, anti-mouse-Dylight 649; Pierce #35515) was applied thereto and then incubated. Similarly, a control array subjected to incubation with only the secondary antibody was also treated so as to confirm no detected signals.

SEQ ID NO 78 = target: T2, SEQ ID NO 78 (human)
T2 construct: 15-mer of the human mortalin 348-450 array
T2 peptide: GEVILVGGMTRMPKV
Method: as §1, §2, §3

SEQ ID NO 68 = target: T3, SEQ ID NO 68 (human)
T3 construct: 15-mer of the human mortalin 348-450 array; by its order peptide #47 (inferred)
T3 peptide: KVQQTVQDLFGRAPS
Method: as §1, §2, §3

SEQ ID NO 72 = target: T4, SEQ ID NO 72 (human)
T4 construct: 15-mer of the human mortalin 348-450 array; by its order peptide #51 (inferred)
T4 peptide: TVQDLFGRAPSKAVN
Method: as §1, §2, §3

SEQ ID NO 76 = target: T5, SEQ ID NO 76 (human)
T5 construct: 15-mer of the human mortalin 348-450 array; by its order peptide #55 (inferred)
T5 peptide: LFGRAPSKAVNPDEA
Method: as §1, §2, §3

SEQ ID NO 67 = target: T6, SEQ ID NO 67 (human)
T6 construct: 15-mer of the human mortalin 348-450 array
T6 peptide: PKVQQTVQDLFGRAP
Method: as §1, §2, §3

SEQ ID NO 70 = target: T7, SEQ ID NO 70 (human)
T7 construct: 15-mer of the human mortalin 348-450 array; by its order peptide #49 (inferred)
T7 peptide: QQTVQDLFGRAPSKA
Method: as §1, §2, §3

SEQ ID NO 69 = target: T8, SEQ ID NO 69 (human)
T8 construct: 15-mer of the human mortalin 348-450 array; by its order peptide #48 (inferred)
T8 peptide: VQQTVQDLFGRAPSK
Method: as §1, §2, §3

SEQ ID NO 74 = target: T9, SEQ ID NO 74 (human)
T9 construct: 15-mer of the human mortalin 348-450 array; by its order peptide #53 (inferred)
T9 peptide: QDLFGRAPSKAVNPD
Method: as §1, §2, §3

SEQ ID NO 80 = target: T10, SEQ ID NO 80 (human)
T10 construct: 15-mer of the human mortalin 348-450 array
T10 peptide: GMTRMPKVQQTVQDL
Method: as §1, §2, §3

SEQ ID NO 79 = target: T11, SEQ ID NO 79 (human)
T11 construct: 15-mer of the human mortalin 348-450 array
T11 peptide: EVILVGGMTRMPKVQ
Method: as §1, §2, §3

SEQ ID NO 81 = target: T12, SEQ ID NO 81 (human)
T12 construct: 15-mer of the human mortalin 348-450 array
T12 peptide: TRMPKVQQTVQDLFG
Method: as §1, §2, §3

SEQ ID NO 71 = target: T13, SEQ ID NO 71 (human)
T13 construct: 15-mer of the human mortalin 348-450 array; by its order peptide #50 (inferred)
T13 peptide: QTVQDLFGRAPSKAV
Method: as §1, §2, §3

SEQ ID NO 75 = target: T14, SEQ ID NO 75 (human)
T14 construct: 15-mer of the human mortalin 348-450 array; by its order peptide #54 (inferred)
T14 peptide: DLFGRAPSKAVNPDE
Method: as §1, §2, §3

SEQ ID NO 77 = target: T15, SEQ ID NO 77 (human)
T15 construct: 15-mer of the human mortalin 348-450 array
T15 peptide: KAMQDAEVSKSDIGE
Method: as §1, §2, §3

SEQ ID NO 73 = target: T16, SEQ ID NO 73 (human)
T16 construct: 15-mer of the human mortalin 348-450 array; by its order peptide #52 (inferred)
T16 peptide: VQDLFGRAPSKAVNP
Method: as §1, §2, §3

Measured: binding result

B1: anti-mortalin monoclonal antibody 52-3 (antibody, V domains shown)
VH: QVQLQQPGAELVKPGASVKLSCKASGYTFTSYWMHWVKQRPGQGLEWIGEINPSNGRTNYNEKFKSKATLTVDKSSSTAYMQLSSLTSEDSAVYYCARSRYYGSCYFDYWGQGTTLTVSS
VL: KIVMTQAAFSNPVTLGTSASISCRSSKSLLYSNGITYLYWYLQKPGQSPQLLIYQMSNLASGVPDRFSSSGSGTDFTLRISRVEAEDVGVYYCAQNLELPWTFGGGTKLEIK
notes: also called 52-3 antibody; non-internalization antibody
no binding (tested: 30 µg/mL): all assays above

Reference: patent publication US20100297664A1 (NATIONAL INSTITUTE OF ADVANCE INDUSTRIAL SCIENCE AND …, published 2010)
